From publication PMC12301328, “Identification of a preferred DNA binding sequence and novel regulon member for CadR in Pseudomonas aeruginosa PAO1”

What was measured:
[1] = molecular target: CadR from Pseudomonas aeruginosa PAO1 (PaCadR) (Pseudomonas aeruginosa PAO1); experiment: not stated; purified PaCadR in solution (Supplementary Figure S7); method not given
[2] = molecular target: CadR from Pseudomonas aeruginosa PAO1 (PaCadR) (Pseudomonas aeruginosa PAO1); experiment: native gel or EMSA; adaptation of a Ferguson plot of the DNA-bound PaCadR species on native PAGE (Supplementary Figure S6); PaCadR bound to its consensus DNA
PaCadR [3] = molecular target: T1, PaCadR (Pseudomonas aeruginosa PAO1, UniProt Q9HXV1 1-156); experiment: EMSA; 50 nM PaCadR; not significantly different from WT; EMSA: 1X CutSmart buffer, 1 mM DTT, 3 mM EDTA, 5 nM each DNA, 37 C, 20 min; BLI: 20 mM Tris-Cl pH 7.5, 100 mM NaCl, 0.01% Tween-20, 1 mM DTT, 37 C; conditions: protein: recombinant; chain copies: 2; label: 5' IRDye-700 on ST2R strand; blunt
T1 sequence: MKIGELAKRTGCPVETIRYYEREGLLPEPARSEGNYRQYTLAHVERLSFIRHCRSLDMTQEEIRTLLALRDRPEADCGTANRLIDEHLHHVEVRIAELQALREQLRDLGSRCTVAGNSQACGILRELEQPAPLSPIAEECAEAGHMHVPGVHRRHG

PaCadR [4] = molecular target: T1, PaCadR; experiment: EMSA; 20-80 nM PaCadR; EMSA: 1X CutSmart buffer, 1 mM DTT, 3 mM EDTA, 5 nM each DNA, 37 C, 20 min; BLI: 20 mM Tris-Cl pH 7.5, 100 mM NaCl, 0.01% Tween-20, 1 mM DTT, 37 C; conditions: protein: recombinant; chain copies: 2; label: 5' IRDye-800 on ConL strand; blunt
PaCadR [5] = molecular target: T1, PaCadR; experiment: BLI; no added metal; EMSA: 1X CutSmart buffer, 1 mM DTT, 3 mM EDTA, 5 nM each DNA, 37 C, 20 min; BLI: 20 mM Tris-Cl pH 7.5, 100 mM NaCl, 0.01% Tween-20, 1 mM DTT, 37 C; conditions: protein: recombinant; chain copies: 2; label: 5' biotin on ST2R strand; blunt

## CadR from Pseudomonas aeruginosa PAO1 (PaCadR) (from UniProt A0A0H2ZEP1 1-156) (natural protein)
[1]
  stoichiometry N: 2
[2]
  stoichiometry N: 2

B1: ST2_CadR_mt12 (dsDNA)
DNA 1: CTAGGAATTCGTGCAGAGGTGAAACCCTGTAGTGACTACAGGGTTCATCCCTCCAGAAGCTTGGAC
DNA 2: GTCCAAGCTTCTGGAGGGATGAACCCTGTAGTCACTACAGGGTTTCACCTCTGCACGAATTCCTAG
PaCadR [3]
  binding result: binds

B2: Control (EMSA) (dsDNA)
DNA 1: CCTCTCTATGGGCAGTCGGTGATCTAGGAATTCGTGCAGAGGTGACGTCATAGAATTCGCATCCCTCCAGAAGCTTGGAC
DNA 2: GTCCAAGCTTCTGGAGGGATGCGAATTCTATGACGTCACCTCTGCACGAATTCCTAGATCACCGACTGCCCATAGAGAGG
PaCadR [4]
  binding result: no binding

B3: Control (BLI) (dsDNA)
DNA 1: CTAGGAATTCGTGCAGAGGTGACGTCATAGAATTCGCATCCCTCCAGAAGCTTGGAC
DNA 2: GTCCAAGCTTCTGGAGGGATGCGAATTCTATGACGTCACCTCTGCACGAATTCCTAG
PaCadR [5]
  binding result: no binding
